# Test results reported in publication doi:10.1101/2024.11.11.622897.
# T1: DdaA (A. baumannii), AbDdaA (Acinetobacter baumannii ATCC 17978, UniProt V5VBS3 1-335)
# T1 sequence: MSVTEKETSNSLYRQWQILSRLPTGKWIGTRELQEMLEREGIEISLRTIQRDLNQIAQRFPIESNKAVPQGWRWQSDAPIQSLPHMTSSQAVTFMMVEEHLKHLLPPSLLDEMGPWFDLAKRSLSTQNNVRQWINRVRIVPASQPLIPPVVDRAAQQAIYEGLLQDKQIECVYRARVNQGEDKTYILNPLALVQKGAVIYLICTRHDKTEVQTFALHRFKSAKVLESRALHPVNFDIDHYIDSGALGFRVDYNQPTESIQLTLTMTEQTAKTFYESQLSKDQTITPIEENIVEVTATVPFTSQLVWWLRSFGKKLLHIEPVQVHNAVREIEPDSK
# Molecular target: T1, DdaA (A. baumannii), AbDdaA
# Assay: EMSA
binder,measurement,value
recA promoter motif WT (AR-DDRM) (dsDNA) DNA 1: TTTCCGGTCTGGGCGACACAATATGACGTGTAATTTTAACC DNA 2: GGTTAAAATTACACGTCATATTGTGTCGCCCAGACCGGAAA,binding result,binds
